We go through nine substances from patent publication US20170335317.

Data set [1] addresses ATRX full length (UniProt P46100). The experiment in a line: filter.
For data set [2] the target is unchanged. The experiment in a line: FP.

Chain of UniProt P46100 (P46100 whole entry): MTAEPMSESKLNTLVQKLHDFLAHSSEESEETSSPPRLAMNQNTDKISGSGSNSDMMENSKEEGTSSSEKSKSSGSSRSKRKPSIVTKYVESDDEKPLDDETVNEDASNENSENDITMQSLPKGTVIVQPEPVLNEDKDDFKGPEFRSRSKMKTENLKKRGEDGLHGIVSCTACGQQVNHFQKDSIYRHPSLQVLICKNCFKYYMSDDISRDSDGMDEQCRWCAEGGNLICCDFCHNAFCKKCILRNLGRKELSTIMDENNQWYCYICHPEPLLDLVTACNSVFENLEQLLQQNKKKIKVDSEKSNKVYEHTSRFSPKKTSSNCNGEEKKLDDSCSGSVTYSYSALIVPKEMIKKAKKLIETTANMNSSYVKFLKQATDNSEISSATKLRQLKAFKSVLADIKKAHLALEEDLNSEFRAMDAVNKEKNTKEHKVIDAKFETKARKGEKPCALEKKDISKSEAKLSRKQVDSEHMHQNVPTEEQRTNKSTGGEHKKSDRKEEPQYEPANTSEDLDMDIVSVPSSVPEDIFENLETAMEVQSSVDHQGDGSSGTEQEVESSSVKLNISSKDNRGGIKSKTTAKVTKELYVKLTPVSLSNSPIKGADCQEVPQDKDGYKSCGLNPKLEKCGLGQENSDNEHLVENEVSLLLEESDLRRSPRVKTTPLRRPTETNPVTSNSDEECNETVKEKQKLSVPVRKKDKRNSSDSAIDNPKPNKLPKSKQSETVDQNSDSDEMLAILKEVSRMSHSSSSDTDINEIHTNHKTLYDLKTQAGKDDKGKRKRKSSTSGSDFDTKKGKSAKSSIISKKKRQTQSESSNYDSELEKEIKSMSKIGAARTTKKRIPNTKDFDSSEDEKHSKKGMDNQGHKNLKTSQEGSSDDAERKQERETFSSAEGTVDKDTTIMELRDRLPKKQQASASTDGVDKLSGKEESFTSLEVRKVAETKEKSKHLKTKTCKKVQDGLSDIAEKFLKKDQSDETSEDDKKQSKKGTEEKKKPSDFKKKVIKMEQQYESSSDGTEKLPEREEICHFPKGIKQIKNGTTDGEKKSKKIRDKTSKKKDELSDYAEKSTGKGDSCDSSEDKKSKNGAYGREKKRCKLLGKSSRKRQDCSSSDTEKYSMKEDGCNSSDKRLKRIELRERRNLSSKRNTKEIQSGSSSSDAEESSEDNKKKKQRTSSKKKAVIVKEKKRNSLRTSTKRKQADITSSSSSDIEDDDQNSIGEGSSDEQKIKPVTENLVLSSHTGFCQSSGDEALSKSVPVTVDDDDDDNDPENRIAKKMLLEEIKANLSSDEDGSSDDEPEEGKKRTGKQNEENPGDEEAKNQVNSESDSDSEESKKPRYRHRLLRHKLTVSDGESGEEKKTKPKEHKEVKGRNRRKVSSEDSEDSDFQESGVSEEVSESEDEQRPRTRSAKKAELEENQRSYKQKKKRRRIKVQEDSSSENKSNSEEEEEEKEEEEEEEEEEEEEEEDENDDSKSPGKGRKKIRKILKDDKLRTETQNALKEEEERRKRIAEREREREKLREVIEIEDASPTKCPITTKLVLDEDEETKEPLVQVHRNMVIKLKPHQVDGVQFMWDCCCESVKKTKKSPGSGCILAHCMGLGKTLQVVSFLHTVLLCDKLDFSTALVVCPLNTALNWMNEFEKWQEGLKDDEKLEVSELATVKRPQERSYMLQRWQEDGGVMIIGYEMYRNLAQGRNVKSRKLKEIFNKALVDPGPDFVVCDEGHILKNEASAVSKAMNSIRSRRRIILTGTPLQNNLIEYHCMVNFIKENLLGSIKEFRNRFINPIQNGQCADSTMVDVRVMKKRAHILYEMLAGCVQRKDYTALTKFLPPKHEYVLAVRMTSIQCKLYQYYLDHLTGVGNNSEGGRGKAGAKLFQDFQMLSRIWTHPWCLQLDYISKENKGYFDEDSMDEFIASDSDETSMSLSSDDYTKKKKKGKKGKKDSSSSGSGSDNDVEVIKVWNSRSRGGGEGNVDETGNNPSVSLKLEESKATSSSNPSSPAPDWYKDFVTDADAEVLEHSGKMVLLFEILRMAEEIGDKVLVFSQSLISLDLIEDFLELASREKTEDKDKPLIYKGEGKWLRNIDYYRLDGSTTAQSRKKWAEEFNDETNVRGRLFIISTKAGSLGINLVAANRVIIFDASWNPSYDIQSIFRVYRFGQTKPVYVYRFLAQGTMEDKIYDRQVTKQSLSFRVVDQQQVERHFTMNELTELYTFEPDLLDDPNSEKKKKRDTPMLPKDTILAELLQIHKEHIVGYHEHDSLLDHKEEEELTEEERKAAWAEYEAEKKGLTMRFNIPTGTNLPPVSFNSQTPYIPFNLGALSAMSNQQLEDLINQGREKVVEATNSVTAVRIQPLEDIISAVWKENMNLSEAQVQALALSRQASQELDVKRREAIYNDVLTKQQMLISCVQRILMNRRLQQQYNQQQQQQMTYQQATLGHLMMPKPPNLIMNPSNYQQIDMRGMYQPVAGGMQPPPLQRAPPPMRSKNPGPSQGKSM

Hotair dsDNA: the dissociation constant (Kd) with ATRX full length [1] (Kd>>200 nM) is over 200 nM.

Consider MBP dsDNA, for which the dissociation constant (Kd) in the data set with ATRX full length [1] (Kd>>200 nM) was over 200 nM.

MBP mRNA first 300 nt came in with a Kd with ATRX full length [1] (Kd>>200 nM) of over 200 nM.

Turning to P4-P6 ribozyme RNA, the Kd with ATRX full length [1] (Kd>>200 nM) was over 200 nM.

In the data set with ATRX full length [1] (+/-0.89, double-filter binding), Repeat A I-II RNA came in with a dissociation constant (Kd) of 9.96 nM.

The substance Repeat A III-IV RNA showed a Kd with ATRX full length [1] (+/-3.35, double-filter binding) of 17.9 nM.

As for Repeat A dsDNA, in the data set with ATRX full length [1] (unit not printed with value, nM by context), the dissociation constant (Kd) was 15.7 nM.

As for Repeat A ssDNA, in the data set with ATRX full length [1] (could not bind well, Kd>>200 nM), the Kd was over 200 nM.

As to Xist Repeat A I-IV RNA, the dissociation constant (Kd) with ATRX full length [2] came to 5.41 nM.

By Kd is commonly meant the concentration at which binding is half-saturated. A higher Kd goes with weaker binding.
